Measured values reported in publication PMC7952408.
“Also recorded” adds a separate entry of the source.

Conditions: N-glycosylation at N297

Maxatezo / Atezolizumab (anti-PD-L1 human IgG1) heavy chain: N297A (Atezolizumab) compared with A297N back-mutation + GGGS insertion (Maxatezo)
expression_or_secretion: decreases, 1.3 g/L (aglycosylated) vs up to 4 g/L (Maxatezo) | other: increases | stability_or_folding: decreases, Tm1 71.01 °C (Maxatezo) vs 63.55 °C (Atezolizumab), 7.46 °C difference; also recorded: decreases, Tagg 71.2 °C (Maxatezo) vs 60.7 °C (Atezolizumab), 10.5 °C difference
